{"source": "paper PMC10256678", "about": "“Structural mechanism of intracellular autoregulation of zinc uptake in ZIP transporters” (Nature Communications, 2023)", "target": "the molecule itself", "test": "cryo-EM structure; BbZIP in amphipol PMAL-C8 nanoparticles, purified with Cd2+, 20 mM HEPES pH 7.5, 100 mM NaCl; C2 symmetry, 3.05 Å (C1: 3.3 Å)"}
{"protein": "ZIP-family zinc transporter from Bordetella bronchiseptica (BbZIP) (natural protein, UniProt A0A0H3LM39 1-309, looked up, Zrt-/Irt-like protein (ZIP) zinc transporter of Bordetella bronchiseptica, full length gene synthesized and cloned into pET15b; molecular weight 31 kDa; Membrane protein; purified with Cd2+ (CdCl2) present; three Cd2+ ions per protomer and two phosphatidylethanolamine lipids at the dimer in the cryo-EM structure; also called WT BbZIP; source: E. coli C43 (DE3), purified (Ni-NTA, thrombin …)) MNQPSSLAADLRGAWHAQAQSHPLITLGLAASAAGVVLLLVAGIVNALTGENRVHVGYAVLGGAAGFAATALGALMALGLRAISARTQDAMLGFAAGMMLAASAFSLILPGLDAAGTIVGPGPAAAAVVALGLGLGVLLMLGLDYFTPHEHERTGHQGPEAARVNRVWLFVLTIILHNLPEGMAIGVSFATGDLRIGLPLTSAIAIQDVPEGLAVALALRAVGLPIGRAVLVAVASGLMEPLGALVGVGISSGFALAYPISMGLAAGAMIFVVSHEVIPETHRNGHETTATVGLMAGFALMMFLDTALG", "values": [{"measurement": "stoichiometry N", "value": 2}]}
